In the supplement of paper PMC10567573:

B1: DVL3 (parent)
chain: HPDPAPFCADNPSELPPPMERTGG
B2: GNB5 (parent)
chain: DINSVRYYPSGDAFASGSDDATCR

Variants of: B1
Experiment: protein stability index of a GFP-peptide fusion (GPS, HEK-293T) (PSI 1-6); higher = more stable
Conditions: c terminus: a fixed tail appended
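Note: lentivirally expressed fusions sorted by FACS into six bins by GFP to DsRed ratio, PSI derived from sequencing read proportions per bin multiplied by bin number.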

Compared with HPDQAPFCADNPSELPPPMERTGG [P4Q], HPDGAPFCADNPSELPPPMERTGG [P4G] is lower in protein stability index: 5.3 for the first, 4.94 for the second.

Compared with HPDNAPFCADNPSELPPPMERTGG [P4N], HPDFAPFCADNPSELPPPMERTGG [P4F] is lower in protein stability index: 5.35 for the first, 4.71 for the second.

First: HPDRAPFCADNPSELPPPMERTGG [P4R]
Second: HPDEAPFCADNPSELPPPMERTGG [P4E]
The protein stability index of the first is lower: 4.78 for the first, 5.24 for the second.

Going from HPDSAPFCADNPSELPPPMERTGG [P4S] to HPDCAPFCADNPSELPPPMERTGG [P4C], the protein stability index falls from 5.24 to 4.85.

Going from HPDDAPFCADNPSELPPPMERTGG [P4D] to HPDVAPFCADNPSELPPPMERTGG [P4V], the protein stability index falls from 5.64 to 5.14.

First: HPDYAPFCADNPSELPPPMERTGG [P4Y]
Second: HPDAAPFCADNPSELPPPMERTGG [P4A]
The protein stability index of the first is lower: 4.58 for the first, 4.6 for the second.

Compared with HPDTAPFCADNPSELPPPMERTGG [P4T], HPDHAPFCADNPSELPPPMERTGG [P4H] is lower in protein stability index: 4.9 for the first, 4.84 for the second.

First: HPDLAPFCADNPSELPPPMERTGG [P4L]
Second: HPDMAPFCADNPSELPPPMERTGG [P4M]
The protein stability index of the first is lower: 4.8 for the first, 5.22 for the second.

Compared with MPDPAPFCADNPSELPPPMERTGG [H1M], KPDPAPFCADNPSELPPPMERTGG [H1K] is higher in protein stability index: 4.93 for the first, 5.2 for the second.

Compared with EPDPAPFCADNPSELPPPMERTGG [H1E], LPDPAPFCADNPSELPPPMERTGG [H1L] is higher in protein stability index: 5.45 for the first, 5.58 for the second.

Compared with RPDPAPFCADNPSELPPPMERTGG [H1R], HPDPAPFCADNPSELCPPMERTGG [P16C] is lower in protein stability index: 4.98 for the first, 2.38 for the second.

Compared with HPDPAPFCADNPSELLPPMERTGG [P16L], HPDPAPFCADNPSELMPPMERTGG [P16M] is higher in protein stability index: 2.42 for the first, 3.02 for the second.

Going from HPDPAPFCADNPSELSPPMERTGG [P16S] to HPDPAPFCADNPSELDPPMERTGG [P16D], the protein stability index falls from 3.19 to 2.9.

Going from HPDPAPFCADNPSELVPPMERTGG [P16V] to HPDPAPFCADNPSELEPPMERTGG [P16E], the protein stability index rises from 2.9 to 3.09.

Going from HPDPAPFCADNPSELKPPMERTGG [P16K] to HPDPAPFCADNPSELRPPMERTGG [P16R], the protein stability index rises from 2.19 to 2.28.

Going from HPDPAPFCADNPSELAPPMERTGG [P16A] to HPDPAPFCADNPSELIPPMERTGG [P16I], the protein stability index falls from 3.04 to 2.7.

Going from HPDPAPFCADNPSELGPPMERTGG [P16G] to HPDPAPFCADNPSELQPPMERTGG [P16Q], the protein stability index rises from 3.1 to 3.59.

Going from HPDPAPFCADNPSELHPPMERTGG [P16H] to HPDPAPFCADNPSELWPPMERTGG [P16W], the protein stability index falls from 2.58 to 2.17.

Variants of: B2
Experiment: as above
Conditions: c terminus: a fixed tail appended

Compared with DINSWRYYPSGDAFASGSDDATCR [V5W], DINSKRYYPSGDAFASGSDDATCR [V5K] is higher in protein stability index: 3.88 for the first, 3.91 for the second.

First: DINSVRYYPSGDAFASGSDIATCR [D20I]
Second: DINSVRYYPSGDAFATGSDDATCR [S16T]
The protein stability index of the first is lower: 3.14 for the first, 3.49 for the second.

Compared with DINSVRYYPSGDAFANGSDDATCR [S16N], DINSVRYYPSGDAFARGSDDATCR [S16R] is lower in protein stability index: 4.15 for the first, 3.77 for the second.

Compared with DINSVRYYPSGDAFAMGSDDATCR [S16M], DINSVRCYPSGDAFASGSDDATCR [Y7C] is higher in protein stability index: 3.29 for the first, 3.87 for the second.

Going from DINSVRHYPSGDAFASGSDDATCR [Y7H] to DINSVRYYPTGDAFASGSDDATCR [S10T], the protein stability index falls from 4.38 to 3.68.

Going from DINSVRYYPEGDAFASGSDDATCR [S10E] to DIISVRYYPSGDAFASGSDDATCR [N3I], the protein stability index falls from 4.63 to 3.57.

Going from DIKSVRYYPSGDAFASGSDDATCR [N3K] to DINSVRYYPSGDAFASDSDDATCR [G17D], the protein stability index rises from 4.04 to 4.4.

First: DINSVRYYPSGDAFASYSDDATCR [G17Y]
Second: DINSVRYYPSGDAFASISDDATCR [G17I]
The protein stability index of the first is higher: 3.29 for the first, 3.21 for the second.

Going from DINSVRYYPSGDAFASQSDDATCR [G17Q] to DINSVRYYPSGDAFASSSDDATCR [G17S], the protein stability index rises from 3.75 to 3.84.

First: DINSVRYYPSGDAFASGWDDATCR [S18W]
Second: DINSVRYYPSGDAFASGGDDATCR [S18G]
The protein stability index of the first is lower: 3.02 for the first, 4.48 for the second.

Compared with DANSVRYYPSGDAFASGSDDATCR [I2A], DTNSVRYYPSGDAFASGSDDATCR [I2T] is higher in protein stability index: 4.41 for the first, 4.49 for the second.

First: DINSVRYYPSGDIFASGSDDATCR [A13I]
Second: DINSVRYYPSGDNFASGSDDATCR [A13N]
The protein stability index of the first is lower: 3.28 for the first, 3.98 for the second.

Going from DINSVRYYPSGDACASGSDDATCR [F14C] to DINSVRYYPSGDALASGSDDATCR [F14L], the protein stability index falls from 4.16 to 4.1.

Going from DINSVRYYPSGDAVASGSDDATCR [F14V] to DINSVRYYPSGDARASGSDDATCR [F14R], the protein stability index falls from 4.28 to 3.64.

Going from DINSVRYYPSGDAFASGSDDATCS [R24S] to DINSVRYYPSGDAFASGSDDATCM [R24M], the protein stability index falls from 4.12 to 4.03.

First: DINSVRYYPSGDAFASGSDDATCV [R24V]
Second: DINSVRYYPSGDAFASGSDDATCA [R24A]
The protein stability index of the first is lower: 3.92 for the first, 4.03 for the second.

Compared with DINSVRYYPSGDAFASGSDDATCT [R24T], DINSVRYYPSGDAFASGSDDATCF [R24F] is lower in protein stability index: 4.41 for the first, 3.51 for the second.

Going from DINSVRYYPSGDAFASGSYDATCR [D19Y] to DINHVRYYPSGDAFASGSDDATCR [S4H], the protein stability index rises from 2.62 to 4.07.

First: DINEVRYYPSGDAFASGSDDATCR [S4E]
Second: DINSVRYSPSGDAFASGSDDATCR [Y8S]
The protein stability index of the first is higher: 4.29 for the first, 3.94 for the second.

Compared with DINSVRYRPSGDAFASGSDDATCR [Y8R], DINSVRYLPSGDAFASGSDDATCR [Y8L] is lower in protein stability index: 4.65 for the first, 4.39 for the second.

Compared with DINSVRYGPSGDAFASGSDDATCR [Y8G], DINSVRYYPSDDAFASGSDDATCR [G11D] is lower in protein stability index: 4.43 for the first, 4.4 for the second.

First: DINSVRYYPSMDAFASGSDDATCR [G11M]
Second: DINSVRYYPSLDAFASGSDDATCR [G11L]
The protein stability index of the first is higher: 4.02 for the first, 3.9 for the second.

Compared with DINSVRYYMSGDAFASGSDDATCR [P9M], DINSVRYYESGDAFASGSDDATCR [P9E] is higher in protein stability index: 3.3 for the first, 4.16 for the second.

Going from DINSVRYYWSGDAFASGSDDATCR [P9W] to TINSVRYYPSGDAFASGSDDATCR [D1T], the protein stability index rises from 3.23 to 3.95.

Compared with CINSVRYYPSGDAFASGSDDATCR [D1C], DINSVRYYPSGDAFASGSDDATVR [C23V] is higher in protein stability index: 3.44 for the first, 3.87 for the second.

First: DINSVRYYPSGDAFASGSDDATGR [C23G]
Second: DINSVRYYPSGDAFASGSDDATRR [C23R]
The protein stability index of the first is higher: 4.39 for the first, 3.92 for the second.

Compared with DINSVRYYPSGPAFASGSDDATCR [D12P], DINSVRYYPSGDAFYSGSDDATCR [A15Y] is lower in protein stability index: 3.34 for the first, 3.23 for the second.

First: DINSVRYYPSGDAFWSGSDDATCR [A15W]
Second: DINSVRYYPSGDAFPSGSDDATCR [A15P]
The protein stability index of the first is lower: 3.29 for the first, 3.92 for the second.

Compared with DINSVRYYPSGDAFASGSDDGTCR [A21G], DINSVRYYPSGDAFASGSDDITCR [A21I] is lower in protein stability index: 3.63 for the first, 3.44 for the second.
